This test deals with FvMYB1-GST (woodland strawberry (Fragaria vesca)). Kind of test: pull-down; FvSTOP1-His and FvbHLH33-His incubated together with FvMYB1-GST; detection with anti-His, bands quantified with ImageJ against the incubation alone.

Drawing on publication PMC12392964, this text covers binding strength with FvSTOP1-His present, against incubation alone (ImageJ) and binding strength with FvbHLH33-His present, against incubation alone (ImageJ) for 2 substances.

Take FvbHLH33-His (natural protein): the binding strength with FvSTOP1-His present, against incubation alone (ImageJ) came out at 0.54 times.
For FvSTOP1-His (natural protein), the binding strength with FvbHLH33-His present, against incubation alone (ImageJ) is 0.31 times.
